From patent publication US20230375528A1, “SCREENING METHOD FOR THE IDENTIFICATION OF NOVEL THERAPEUTIC COMPOUNDS” (European Molecular Biology Laboratory, priority 2020, published 2023)

Assays:
ENO1down = target: T1, ENO1down (Homo sapiens, UniProt P06733, K343A); assay: competitive EMSA with ENO1down (K343A) mutant; assay type: binding
T1 construct: made in house
Protocol: Enzymatic activity assay of recombinant human ENO1 with increasing enzyme concentrations exposed to different control and target RNAs (constant conc. 100 nM). b. Measurement of recombinant ENO1wt activity with increasing concentrations of control and target PABPC1 RNA (n=3). The standard deviation is given and the statistically significant differences were detected using two-way ANOVA and Sidak-correction for multiple comparison testing. c. Inhibition constants (Ki) for target and control RNAs for the binding to ENO1down determined by competitive EMSA (n=3). The Ki was calculated using a non-linear fitting with least squares regression. […] Quantification of replicates for the experimental setup in e, including the inhibitor constants (n=3). The Ki was calculated using a non-linear fitting with least squares regression.
Quantification of competition EMSA experiments using PABPC1 target RNA as a probe and unlabelled PABPC1 control or target RNA competing for the binding to ENO1down (n=3). b. Quantification of competition EMSA experiments of ENO1down using FTH1 target RNA as a probe and unlabelled control or target FTH1 RNA as competitors (n=3). c. Quantification of competition EMSA experiments of ENO1down using PTP4A1 target RNA as a probe and unlabelled control or target (n=3). d. […]

mESCs = assay: mESC differentiation after LIF withdrawal, qPCR of lineage markers; assay type: cell-based, mouse; settings: mESCs expressing ENO1 variant, seven days of LIF withdrawal, qPCR of marker genes
Protocol: Cells expressing Eomes-mCherry or Brachyury-BFP after seven days of LIF withdrawal were sorted for the respective fluorescent marker proteins, cultured for an additional five days and lactate accumulation in the culture medium was quantified (n=3). The standard deviation is given and the statistically significant differences were detected using the two-tailed Student's t-test. b. Cellular RNA-protein interactions were cross-linked with UV and a PNK assay was performed for cell populations described in a. A representative experiment is shown and was performed for a total of three times. Non-crosslinked (No CL), unsorted (us.) mESC were used as specificity controls. Immunoblots of ENO1 and actin are shown as controls. c. Cell lines were established for ENO1 knockout and constitutive transgenic expression of Flag-HA-tagged ENO1wt, ENO1up and ENO1down from the Rosa26 locus. RNA binding was measured for the three ENO1 variants by Flag immunoprecipitation and PNK assay after UV cross-linking in pluripotent mESCs. Three independent clones were used. The standard deviation is given and the statistically significant differences were detected using the two-tailed Student's t-test when comparing to ENO1wt. d. Measurement of the lactate accumulation in the culture medium for three independent clones of ENO1wt, ENO1up and ENO1down in pluripotent mESCs. The standard deviation is given and the statistically significant differences were detected using the two-tailed Student's t-test when comparing to ENO1wt. e.-g. Differentiation of mESCs and qPCRs of lineage marker for ENO1wt (e.), ENO1up (f.) and ENO1down (g.) after seven days of LIF withdrawal for three independent clones (from c.) in three experiments. The standard deviation is given and the statistically significant differences were detected using two-way ANOVA with Tukey-corrected multiple comparison testing when comparing to ENO1wt.
Independent clones of these cell lines were subjected to LIF withdrawal and analysed for differentiation to the different germ layers.

T1 sequence (P06733 whole entry K343A): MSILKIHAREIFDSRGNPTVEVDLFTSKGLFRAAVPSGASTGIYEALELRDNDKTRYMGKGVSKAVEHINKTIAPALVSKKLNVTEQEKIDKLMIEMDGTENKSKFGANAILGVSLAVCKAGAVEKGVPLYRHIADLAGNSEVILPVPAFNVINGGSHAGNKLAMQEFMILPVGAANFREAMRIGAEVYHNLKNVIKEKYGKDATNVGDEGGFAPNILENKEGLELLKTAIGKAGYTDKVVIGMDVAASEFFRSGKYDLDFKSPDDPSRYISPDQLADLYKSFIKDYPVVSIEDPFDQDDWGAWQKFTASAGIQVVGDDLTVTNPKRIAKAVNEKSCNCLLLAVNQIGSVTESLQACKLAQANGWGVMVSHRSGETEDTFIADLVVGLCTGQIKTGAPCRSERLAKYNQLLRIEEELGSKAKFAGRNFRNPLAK

decreased RNA binding compared to ENO1wt (ENO1down): 5-10 fold
Substance: ENO1down: ENO1 mutant K343A with reduced RNA binding
differentiation to germ layers (mESCs): increased differentiation towards the definitive endoderm
